Data set [1] concerns the target T1, DNAJC12, wild type, human, full-length (human, UniProt Q9UKB3 1-198). In words: SEC. (In general: SEC sorts molecules by how far they enter the pores of the column.)
The data set “SEC-MALS” deals with the molecule itself. As to the kind of experiment: SEC-MALS.
Data set [2] has as its target T1, DNAJC12, wild type, human, full-length. As to the kind of experiment: BLI. Background: BLI is a label-free optical method that tracks binding on a fibre tip over time.
The target is the same in data set [3]. As to the kind of experiment: BLI. The source holds these as a separate data set.

We go through three molecules from doi:10.1101/2025.07.18.665471 (bioRxiv, 2025).

Residue numbers refer to the chain shown, from its start. Numbers in names are those of the source. Where “and” joins values, the source holds several entries; their conditions need not be identical. Equal entries are not always repeated. Where two headings read alike, the source gives them in different places.

T1 sequence (Q9UKB3 whole entry): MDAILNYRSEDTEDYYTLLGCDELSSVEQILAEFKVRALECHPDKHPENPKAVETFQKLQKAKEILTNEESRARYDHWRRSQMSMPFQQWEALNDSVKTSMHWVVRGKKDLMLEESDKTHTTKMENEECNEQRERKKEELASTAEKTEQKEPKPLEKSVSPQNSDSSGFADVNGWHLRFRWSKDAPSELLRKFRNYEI

B1: PAH-p.R261Q, PKU-associated variant of phenylalanine hydroxylase (enzyme, human)
chain: MSTAVLENPGLGRKLSDFGQETSYIEDNCNQNGAISLIFSLKEEVGALAKVLRLFEENDVNLTHIESRPSRLKKDEYEFFTHLDKRSLPALTNIIKILRHDIGATVHELSRDKKKDTVPWFPRTIQELDRFANQILSYGAELDADHPGFKDPVYRARRKQFADIAYNYRHGQPIPRVEYMEEEKKTWGTVFKTLKSLYKTHACYEYNHIFPLLEKYCGFHEDNIPQLEDVSQFLQTCTGFRLRPVAGLLSSRDFLGGLAFQVFHCTQYIRHGSKPMYTPEPDICHELLGHVPLFSDRSFAQFSQEIGLASLGAPDEYIEKLATIYWFTVEFGLCKQGDSIKAYGAGLLSSFGELQYCLSEKPKLLPLELEKTAIQNYTVTEFQPLYYVAESFNDAKEKVRNFAATIPRPFSVRYDPYTQRIEVLDNTQQLKILADSINSEIGILCSALQKIK
On to B1, for which, in data set [1], the binding result is reported as “binds”.

B2: phenylalanine hydroxylase (PAH), wild type, human (enzyme, UniProt P00439 1-452, looked up)
chain: B1 chain with Q261R
modifications: biotin (EZ-Link NHS-PEG4-Biotin), for the BLI only
The stoichiometry N is a count of units in the complex or per binding partner. As a reminder, the Kd is the constant that tells how readily two partners part at equilibrium. As to B2, the “stoichiometry N” value in the data set “SEC-MALS” was 4 and 8. In addition, the figures for the dissociation constant (Kd) in data set [2] and in data set [3] were 508 ± 59 nM and 139 ± 19 nM, respectively.

B3: MBP-PAH(RD), regulatory domain of PAH (PAH(1-112)) fused to maltose binding protein (domain or fragment, human, UniProt P00439 1-112, looked up)
chain: MSTAVLENPGLGRKLSDFGQETSYIEDNCNQNGAISLIFSLKEEVGALAKVLRLFEENDVNLTHIESRPSRLKKDEYEFFTHLDKRSLPALTNIIKILRHDIGATVHELSRD
Consider B3, for which the binding result in data set [1] is reported as “binds”.
